We go through 25 variants from the supplement of paper PMC7125110.

B1: glmS ribozyme (parent)
chain: AUAAAAGCGCCAGAACUACAGAAAUGUAGUUGACGAGGAGGAGGUUUAUCGAAUUUUCGGCGGAUGCCUCCAAA

± gives the standard error. For some assays here: Variants at the floor of the assay were thinned out. Where only a bound is given, the exact number is not on record here.

Details in all cases: with glucosamine-6-phosphate
Data set [1] covers variants of B1. Put plainly: self-cleavage kobs at 40 uM GlcN6P; higher = faster cleavage; RNA array. The procedure, abridged: (§1)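 Barcoded ribozyme variants, transcribed in situ by E. coli RNA polymerase on sequenced MiSeq chips, were followed via a hybridised Cy3 probe at 37 °C. Glucosamine-6-phosphate ranged from 40 μM to 10 mM in HEPES/KCl/Mg(OAc)2 buffer. kobs came from decay fits to per-tile medians, and kcat and KM from weighted Michaelis–Menten fits.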

Variants of B1 are the subject of data set [2]. The data set is described as follows: self-cleavage kobs at 2500 uM GlcN6P; higher = faster cleavage; RNA array. Summed up: as §1
Variants of B1 are the subject of data set [3]. The data set is described as follows: kcat; higher = faster cleavage; RNA array. The procedure, abridged: as §1
The variants in data set [4] derive from B1. The data set is described as follows: KM; higher = weaker cofactor use; RNA array. The procedure, abridged:
as §1

Variants of B1 are the subject of data set [5]. The data set is described as follows: self-cleavage kobs at 160 uM GlcN6P; higher = faster cleavage; RNA array. The procedure, abridged: as §1
Data set [6] covers variants of B1. Put plainly: self-cleavage kobs at 640 uM GlcN6P; higher = faster cleavage; RNA array. The procedure, abridged: as §1
Variants of B1 are the subject of data set [7]. The data set is described as follows: self-cleavage kobs at 10000 uM GlcN6P; higher = faster cleavage; RNA array. The procedure, abridged: as §1

A39C A42U C67G: the “self-cleavage kobs at 40 uM GlcN6P” value with glucosamine-6-phosphate [1] is below 1e-05 s⁻¹. The “self-cleavage kobs at 2500 uM GlcN6P” value with glucosamine-6-phosphate [2] was below 1e-05 s⁻¹.

On to A12C A15U, for which, in the data set with glucosamine-6-phosphate [3], the kcat (commonly the maximal rate divided by the concentration of active sites) was 0.00259 ± 0.00075 s⁻¹. Besides, the KM (commonly the concentration of substrate that gives half-maximal velocity) with glucosamine-6-phosphate [4] was 1430 ± 600 µM. In the data set with glucosamine-6-phosphate [1], the “self-cleavage kobs at 40 uM GlcN6P” value came to 7.96e-05 ± 8.9e-06 s⁻¹. Moreover, the “self-cleavage kobs at 160 uM GlcN6P” value with glucosamine-6-phosphate [5] turned out to be 0.000208 ± 3.6e-05 s⁻¹. The “self-cleavage kobs at 640 uM GlcN6P” value with glucosamine-6-phosphate [6] worked out at 0.00126 ± 0.0002 s⁻¹. The “self-cleavage kobs at 2500 uM GlcN6P” value with glucosamine-6-phosphate [2] was 0.0012 ± 0.00021 s⁻¹. For the same variant, the “self-cleavage kobs at 10000 uM GlcN6P” value in the data set with glucosamine-6-phosphate [7] was determined as 0.00271 ± 0.00031 s⁻¹.

Turning to A12U G32C G41U C61A, the “self-cleavage kobs at 40 uM GlcN6P” value in the data set with glucosamine-6-phosphate [1] was below 1e-05 s⁻¹.

Consider C8A G9U, for which, in the data set with glucosamine-6-phosphate [1], the “self-cleavage kobs at 40 uM GlcN6P” value is below 1e-05 s⁻¹. Moreover, the “self-cleavage kobs at 160 uM GlcN6P” value with glucosamine-6-phosphate [5] is below 1e-05 s⁻¹. Besides, the “self-cleavage kobs at 640 uM GlcN6P” value with glucosamine-6-phosphate [6] was below 1e-05 s⁻¹. Also, the “self-cleavage kobs at 2500 uM GlcN6P” value with glucosamine-6-phosphate [2] was below 1e-05 s⁻¹. Also, in the data set with glucosamine-6-phosphate [7], the “self-cleavage kobs at 10000 uM GlcN6P” value was below 1e-05 s⁻¹.

As to A33G A39U, the “self-cleavage kobs at 40 uM GlcN6P” value with glucosamine-6-phosphate [1] was below 1e-05 s⁻¹. For the same variant, the “self-cleavage kobs at 2500 uM GlcN6P” value with glucosamine-6-phosphate [2] was below 1e-05 s⁻¹. The “self-cleavage kobs at 10000 uM GlcN6P” value with glucosamine-6-phosphate [7] is below 1e-05 s⁻¹.

With A14U U57C, the turnover number (kcat) in the data set with glucosamine-6-phosphate [3] was 7.65e-05 ± 1.4e-05 s⁻¹. In addition, the “self-cleavage kobs at 2500 uM GlcN6P” value in the data set with glucosamine-6-phosphate [2] stood at 5.75e-05 ± 1.1e-05 s⁻¹. The “self-cleavage kobs at 10000 uM GlcN6P” value with glucosamine-6-phosphate [7] is 6.38e-05 ± 1.2e-05 s⁻¹.

Consider A42G U55C, for which the KM with glucosamine-6-phosphate [4] was found to be 895 ± 430 µM. In addition, the “self-cleavage kobs at 40 uM GlcN6P” value with glucosamine-6-phosphate [1] was found to be 0.000832 ± 0.00014 s⁻¹. Also, in the data set with glucosamine-6-phosphate [5], the “self-cleavage kobs at 160 uM GlcN6P” value came to 0.00147 ± 0.00063 s⁻¹. Also, the “self-cleavage kobs at 640 uM GlcN6P” value with glucosamine-6-phosphate [6] was 0.0147 ± 0.0051 s⁻¹. Besides, the “self-cleavage kobs at 2500 uM GlcN6P” value with glucosamine-6-phosphate [2] is 0.0354 ± 0.016 s⁻¹. In addition, in the data set with glucosamine-6-phosphate [7], the “self-cleavage kobs at 10000 uM GlcN6P” value came out at 0.0147 ± 0.0029 s⁻¹.

In the case of G40A G44C, in the data set with glucosamine-6-phosphate [4], the Michaelis constant (KM) was determined as 2680 ± 1100 µM.

For the variant C10G G38U U65G, the “self-cleavage kobs at 40 uM GlcN6P” value with glucosamine-6-phosphate [1] was below 1e-05 s⁻¹. In the data set with glucosamine-6-phosphate [7], the “self-cleavage kobs at 10000 uM GlcN6P” value was below 1e-05 s⁻¹.

As for A6G C10U A39G C58A, in the data set with glucosamine-6-phosphate [1], the “self-cleavage kobs at 40 uM GlcN6P” value was below 1e-05 s⁻¹. Also, the “self-cleavage kobs at 2500 uM GlcN6P” value with glucosamine-6-phosphate [2] was below 1e-05 s⁻¹. In addition, in the data set with glucosamine-6-phosphate [7], the “self-cleavage kobs at 10000 uM GlcN6P” value was below 1e-05 s⁻¹.

As for A6U G7U C16G C34A, the “self-cleavage kobs at 40 uM GlcN6P” value with glucosamine-6-phosphate [1] is below 1e-05 s⁻¹. In addition, the “self-cleavage kobs at 10000 uM GlcN6P” value with glucosamine-6-phosphate [7] is below 1e-05 s⁻¹.

In the case of C34U A42U, the KM with glucosamine-6-phosphate [4] was determined as 70.4 ± 29 µM.

As for A14G A53C C71U, the “self-cleavage kobs at 40 uM GlcN6P” value with glucosamine-6-phosphate [1] came to 0.000387 ± 8.7e-05 s⁻¹. Further, in the data set with glucosamine-6-phosphate [6], the “self-cleavage kobs at 640 uM GlcN6P” value stood at 0.00168 ± 0.00056 s⁻¹. The “self-cleavage kobs at 2500 uM GlcN6P” value with glucosamine-6-phosphate [2] was 0.00736 ± 0.003 s⁻¹. In addition, the “self-cleavage kobs at 10000 uM GlcN6P” value with glucosamine-6-phosphate [7] is 0.00798 ± 0.002 s⁻¹.

In the case of U30G A64C, the turnover number (kcat) with glucosamine-6-phosphate [3] was determined as 5.41e-05 ± 5.3e-06 s⁻¹. Also, the Michaelis-Menten constant (KM) with glucosamine-6-phosphate [4] is 4950 ± 1100 µM. For the same variant, in the data set with glucosamine-6-phosphate [7], the “self-cleavage kobs at 10000 uM GlcN6P” value came to 3.61e-05 ± 1.5e-05 s⁻¹.

As for A6G G32U, in the data set with glucosamine-6-phosphate [3], the catalytic constant (kcat) is below 1e-05 s⁻¹. Besides, the “self-cleavage kobs at 40 uM GlcN6P” value in the data set with glucosamine-6-phosphate [1] is below 1e-05 s⁻¹.

For G35U A64C C68A, in the data set with glucosamine-6-phosphate [1], the “self-cleavage kobs at 40 uM GlcN6P” value is below 1e-05 s⁻¹.

As for A6U C11U G13A, the “self-cleavage kobs at 40 uM GlcN6P” value in the data set with glucosamine-6-phosphate [1] is below 1e-05 s⁻¹. In the data set with glucosamine-6-phosphate [7], the “self-cleavage kobs at 10000 uM GlcN6P” value is below 1e-05 s⁻¹.

Take G43U C50G U54G A64U C71U: the “self-cleavage kobs at 40 uM GlcN6P” value in the data set with glucosamine-6-phosphate [1] came out at 7.77e-05 ± 3e-05 s⁻¹. For the same variant, the “self-cleavage kobs at 10000 uM GlcN6P” value in the data set with glucosamine-6-phosphate [7] came to 0.00156 ± 0.00062 s⁻¹.

On to A12C G38C, for which the kcat with glucosamine-6-phosphate [3] stood at 1.42e-05 ± 5.2e-06 s⁻¹.

Regarding C61A G66C, the “self-cleavage kobs at 40 uM GlcN6P” value with glucosamine-6-phosphate [1] was below 1e-05 s⁻¹. Besides, the “self-cleavage kobs at 2500 uM GlcN6P” value with glucosamine-6-phosphate [2] was below 1e-05 s⁻¹. Also, in the data set with glucosamine-6-phosphate [7], the “self-cleavage kobs at 10000 uM GlcN6P” value was below 1e-05 s⁻¹.

For A6C A52U C67G, the “self-cleavage kobs at 40 uM GlcN6P” value in the data set with glucosamine-6-phosphate [1] is below 1e-05 s⁻¹.

As to A14U A15C A33C C70G, the “self-cleavage kobs at 40 uM GlcN6P” value with glucosamine-6-phosphate [1] is below 1e-05 s⁻¹.

Regarding G44C A48U, in the data set with glucosamine-6-phosphate [1], the “self-cleavage kobs at 40 uM GlcN6P” value was below 1e-05 s⁻¹. Further, in the data set with glucosamine-6-phosphate [5], the “self-cleavage kobs at 160 uM GlcN6P” value was below 1e-05 s⁻¹. Besides, in the data set with glucosamine-6-phosphate [6], the “self-cleavage kobs at 640 uM GlcN6P” value was below 1e-05 s⁻¹. Besides, the “self-cleavage kobs at 2500 uM GlcN6P” value in the data set with glucosamine-6-phosphate [2] was below 1e-05 s⁻¹. In the data set with glucosamine-6-phosphate [7], the “self-cleavage kobs at 10000 uM GlcN6P” value is below 1e-05 s⁻¹.

On to C8A U47C U65A, for which the “self-cleavage kobs at 40 uM GlcN6P” value with glucosamine-6-phosphate [1] is below 1e-05 s⁻¹.

Take A12C A14C C70U: the “self-cleavage kobs at 40 uM GlcN6P” value with glucosamine-6-phosphate [1] is below 1e-05 s⁻¹. Further, the “self-cleavage kobs at 2500 uM GlcN6P” value with glucosamine-6-phosphate [2] was determined as 9.06e-05 ± 1.4e-05 s⁻¹. Besides, in the data set with glucosamine-6-phosphate [7], the “self-cleavage kobs at 10000 uM GlcN6P” value is 8.48e-05 ± 1.8e-05 s⁻¹.
